How the values were obtained:
[1] = target: T1, GST-TRAPΔN (TRAP150 266-955) (UniProt Q9Y2W1 266-955); assay: pull-down; 40 ug GST-tagged bait on glutathione sepharose 4B beads; prey incubated 1.5 h at 4°C in PBS; washes with PBS supplemented with 300 mM NaCl; western blot; settings: both partners purified
T1 construct: pGEX-6-P1; also called GST-TRAP150ΔN; TRAP150-ΔN; source: E. coli Rosetta(DE3)pLysS, purified (glutathione sepharose, SEC); not shown: GST, N-terminal, kept
T1 sequence (looked up): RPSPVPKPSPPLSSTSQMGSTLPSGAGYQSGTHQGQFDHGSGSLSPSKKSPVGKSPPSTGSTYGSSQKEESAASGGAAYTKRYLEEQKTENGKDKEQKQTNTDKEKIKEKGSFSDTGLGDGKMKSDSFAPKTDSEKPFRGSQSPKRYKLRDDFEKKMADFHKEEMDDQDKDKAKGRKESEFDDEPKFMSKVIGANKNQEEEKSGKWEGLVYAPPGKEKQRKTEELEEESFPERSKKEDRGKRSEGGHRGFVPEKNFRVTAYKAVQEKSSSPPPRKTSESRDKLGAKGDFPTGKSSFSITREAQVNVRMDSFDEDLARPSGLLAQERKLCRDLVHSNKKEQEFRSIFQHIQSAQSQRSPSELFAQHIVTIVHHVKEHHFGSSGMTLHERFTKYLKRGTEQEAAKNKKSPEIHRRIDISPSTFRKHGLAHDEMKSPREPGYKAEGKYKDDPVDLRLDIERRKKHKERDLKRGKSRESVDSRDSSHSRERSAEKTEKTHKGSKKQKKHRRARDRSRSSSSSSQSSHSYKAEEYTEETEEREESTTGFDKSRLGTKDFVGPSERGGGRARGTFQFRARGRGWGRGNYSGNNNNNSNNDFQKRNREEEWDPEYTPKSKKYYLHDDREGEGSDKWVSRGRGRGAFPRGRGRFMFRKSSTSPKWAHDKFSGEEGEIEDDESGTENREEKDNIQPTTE

[2] = target: T2, GST-TRAP266–755 (UniProt Q9Y2W1 266-755); assay: as above; settings: both partners purified
T2 construct: source: E. coli Rosetta(DE3)pLysS, purified (glutathione sepharose, SEC); not shown: GST, N-terminal, kept
T2 sequence (looked up): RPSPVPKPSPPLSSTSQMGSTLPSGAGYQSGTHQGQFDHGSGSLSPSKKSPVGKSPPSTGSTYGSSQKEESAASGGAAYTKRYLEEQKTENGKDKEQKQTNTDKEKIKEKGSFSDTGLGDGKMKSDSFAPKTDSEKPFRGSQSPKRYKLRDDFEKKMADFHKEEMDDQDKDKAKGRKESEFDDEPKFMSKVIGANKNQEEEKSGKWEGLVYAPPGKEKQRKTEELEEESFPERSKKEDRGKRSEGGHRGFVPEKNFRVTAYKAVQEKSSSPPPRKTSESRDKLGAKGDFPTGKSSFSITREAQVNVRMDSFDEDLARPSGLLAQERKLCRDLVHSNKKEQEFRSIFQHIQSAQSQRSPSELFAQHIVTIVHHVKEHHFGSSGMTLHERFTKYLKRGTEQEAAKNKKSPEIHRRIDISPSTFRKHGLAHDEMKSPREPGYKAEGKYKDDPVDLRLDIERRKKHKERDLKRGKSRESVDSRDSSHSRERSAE

[3] = target: T3, PSF exRRMs (human, UniProt P23246 266-484); assay: EMSA; UV crosslinking: 12 mM Tris pH 7.5, 120 mM NaCl, 3 mM MgCl2, 1 mM ATP, 20 mM phosphocreatine, 0.1 mM EDTA, 12% glycerol, 1.3% PVA, 25 ng/ul yeast tRNA, 20 ng/ul; settings: protein: recombinant; tags: 6xHis-FLAG N-term; label: uniform 32P
T3 sequence: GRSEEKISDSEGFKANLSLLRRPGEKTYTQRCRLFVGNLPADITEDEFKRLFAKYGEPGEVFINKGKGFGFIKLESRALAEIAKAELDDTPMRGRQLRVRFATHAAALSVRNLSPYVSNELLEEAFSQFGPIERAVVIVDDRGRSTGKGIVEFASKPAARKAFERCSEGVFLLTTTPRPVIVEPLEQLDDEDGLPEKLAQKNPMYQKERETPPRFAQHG

[4] = target: T4, PSF exRRM2 (human, UniProt P23246 366-484); assay: EMSA; affinity similar to exRRMs; UV crosslinking: 12 mM Tris pH 7.5, 120 mM NaCl, 3 mM MgCl2, 1 mM ATP, 20 mM phosphocreatine, 0.1 mM EDTA, 12% glycerol, 1.3% PVA, 25 ng/ul yeast tRNA, 20 ng/ul; settings: protein: recombinant; tags: 6xHis-FLAG N-term; label: uniform 32P
T4 sequence: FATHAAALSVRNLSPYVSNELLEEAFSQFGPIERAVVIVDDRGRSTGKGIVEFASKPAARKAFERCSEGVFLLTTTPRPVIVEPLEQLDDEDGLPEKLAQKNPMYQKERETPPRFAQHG

[5] = target: T5, PSF full-length (PSF-FL) (human, UniProt P23246 1-707); assay: UV crosslinking; higher affinity than exRRMs; UV crosslinking: 12 mM Tris pH 7.5, 120 mM NaCl, 3 mM MgCl2, 1 mM ATP, 20 mM phosphocreatine, 0.1 mM EDTA, 12% glycerol, 1.3% PVA, 25 ng/ul yeast tRNA, 20 ng/ul; settings: protein: recombinant; tags: 6xHis-FLAG N-term; chain copies: 2; label: uniform 32P
T5 sequence: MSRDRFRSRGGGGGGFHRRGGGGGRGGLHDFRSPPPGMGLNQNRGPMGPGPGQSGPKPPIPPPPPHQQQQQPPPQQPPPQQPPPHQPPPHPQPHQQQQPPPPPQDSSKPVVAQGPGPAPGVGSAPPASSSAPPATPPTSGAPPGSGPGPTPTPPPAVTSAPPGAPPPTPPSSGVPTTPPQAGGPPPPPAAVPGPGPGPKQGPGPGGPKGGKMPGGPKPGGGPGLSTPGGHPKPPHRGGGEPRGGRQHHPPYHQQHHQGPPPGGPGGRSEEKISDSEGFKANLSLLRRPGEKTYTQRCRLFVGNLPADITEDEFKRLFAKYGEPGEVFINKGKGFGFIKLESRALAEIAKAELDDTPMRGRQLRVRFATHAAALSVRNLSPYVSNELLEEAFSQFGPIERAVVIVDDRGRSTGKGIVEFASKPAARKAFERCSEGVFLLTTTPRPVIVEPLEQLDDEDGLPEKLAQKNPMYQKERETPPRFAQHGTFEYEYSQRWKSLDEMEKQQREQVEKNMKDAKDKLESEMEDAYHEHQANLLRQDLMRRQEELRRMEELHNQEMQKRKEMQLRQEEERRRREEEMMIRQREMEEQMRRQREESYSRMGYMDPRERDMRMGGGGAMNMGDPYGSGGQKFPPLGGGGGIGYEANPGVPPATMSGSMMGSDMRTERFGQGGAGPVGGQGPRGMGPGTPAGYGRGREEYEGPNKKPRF

[6] = target: T6, hnRNP L (UniProt P14866 1-589); assay: UV crosslinking competition; GST-TRAP150 PID (686-755), no inhibition; UV crosslinking: 12 mM Tris pH 7.5, 120 mM NaCl, 3 mM MgCl2, 1 mM ATP, 20 mM phosphocreatine, 0.1 mM EDTA, 12% glycerol, 1.3% PVA, 25 ng/ul yeast tRNA, 20 ng/ul; settings: protein: recombinant; tags: 6xHis; label: uniform 32P
T6 sequence: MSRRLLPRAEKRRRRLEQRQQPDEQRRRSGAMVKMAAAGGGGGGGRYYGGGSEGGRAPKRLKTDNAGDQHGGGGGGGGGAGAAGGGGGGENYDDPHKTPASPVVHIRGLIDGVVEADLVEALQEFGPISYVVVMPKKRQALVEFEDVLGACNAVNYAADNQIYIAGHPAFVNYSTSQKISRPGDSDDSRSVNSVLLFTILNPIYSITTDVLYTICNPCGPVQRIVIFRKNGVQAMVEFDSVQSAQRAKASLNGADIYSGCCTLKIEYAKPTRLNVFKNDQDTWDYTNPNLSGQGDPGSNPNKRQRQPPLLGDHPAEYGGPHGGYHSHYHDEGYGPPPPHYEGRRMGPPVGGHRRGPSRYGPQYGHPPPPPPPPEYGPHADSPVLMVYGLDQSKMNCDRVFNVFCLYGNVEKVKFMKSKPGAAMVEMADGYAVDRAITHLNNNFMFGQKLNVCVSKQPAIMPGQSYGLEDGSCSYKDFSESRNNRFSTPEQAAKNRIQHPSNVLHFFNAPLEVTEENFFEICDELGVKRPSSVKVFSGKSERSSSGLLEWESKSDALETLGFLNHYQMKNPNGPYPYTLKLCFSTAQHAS

[7] = target: T7, PSF minRRMs (human, UniProt P23246 299-449); assay: as above; settings: protein: recombinant; tags: 6xHis-FLAG N-term; label: uniform 32P
T7 sequence: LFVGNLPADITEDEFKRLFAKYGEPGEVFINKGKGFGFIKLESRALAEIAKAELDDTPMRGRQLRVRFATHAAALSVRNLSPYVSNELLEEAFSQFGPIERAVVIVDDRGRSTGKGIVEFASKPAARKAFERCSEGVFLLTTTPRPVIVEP

Measured: binding result

B1: HisFLAG-PSF exRRMs (266-484) (domain or fragment, UniProt P23246 266-484, looked up)
chain: T3 sequence
notes: also called HisFLAG-exRRMs; HFexRRM1+2; source: E. coli Rosetta(DE3)pLysS, purified (Ni-NTA, SEC); not shown: His6, N-terminal, kept; FLAG, N-terminal, kept
binds: [1] | [2]

B2: ESS1 (ssRNA)
RNA: ACGCGUCCACUUUCAAGUGACCCCUUACCUACUCACACCACUGCAUUCUCACCCGCAAGCACCUUUGACGCGU
binds: [3] | [4] | [5] | [6] | [7]

Reference: paper PMC4605305, “TRAP150 interacts with the RNA-binding domain of PSF and antagonizes splicing of numerous PSF-target genes in T cells” (Nucleic Acids Research, 2015)
